# Measured values from US20240417453A1 (ANWITA BIOSCIENCES, published 2024).
# T1: human IL-2Rα (CD25) (human, UniProt P01589 22-240, limits assumed)
# T1 construct: also called hIL-2Rα
# T1 sequence: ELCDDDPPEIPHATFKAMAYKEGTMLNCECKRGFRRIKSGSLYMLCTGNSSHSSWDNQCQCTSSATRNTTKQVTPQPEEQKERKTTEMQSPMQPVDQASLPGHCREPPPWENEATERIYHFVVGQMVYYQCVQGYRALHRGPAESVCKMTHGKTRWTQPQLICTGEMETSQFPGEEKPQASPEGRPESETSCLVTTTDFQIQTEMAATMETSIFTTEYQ
# T2: human IL-2Rβ (CD122) (human, UniProt P14784 27-239)
# T2 construct: also called hIL-2Rβ
# T2 sequence: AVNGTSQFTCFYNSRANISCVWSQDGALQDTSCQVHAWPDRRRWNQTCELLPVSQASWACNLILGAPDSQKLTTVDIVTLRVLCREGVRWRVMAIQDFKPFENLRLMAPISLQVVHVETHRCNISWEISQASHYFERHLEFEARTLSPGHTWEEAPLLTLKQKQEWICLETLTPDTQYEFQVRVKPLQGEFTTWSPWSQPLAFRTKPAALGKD
# Experiments:
# human IL-2Rα (CD25) [1] = target: T1, human IL-2Rα (CD25); assay: BLI (OCTET RED96), hIL-2Rα loaded on the biosensor, fusion protein in solution at 33.3, 100 and 300 nM
# Method: (§1) OCTET® RED96 was used to characterize the interactions of anti-HSA-hIL-2 fusion proteins with human IL-2Rα (CD25) and IL-2Rβ (CD122). Briefly, hIL-2Rα and hIL-2Rβ were each loaded onto a biosensor. Each biosensor was then dipped into a solution containing an anti-HSA-hIL-2 fusion protein at 10 to 2,000 nM. Primary experimental data was analyzed with global fitting to determine a binding affinity (Kd).
# human IL-2Rα (CD25) [2] = target: T1, human IL-2Rα (CD25); assay: BLI (OCTET RED96), receptor loaded on biosensor, fusion protein in solution
# Method: as §1
# human IL-2Rβ (CD122) = target: T2, human IL-2Rβ (CD122); assay: BLI (OCTET RED96), receptor loaded on biosensor, global fitting
# Method: as §1
binding result (human IL-2Rα (CD25) [1]),binding result (human IL-2Rα (CD25) [2]),Kd (human IL-2Rβ (CD122)) [nM],Binder
no binding (tested: 300 nM),,,"Anti-HSA-IL-2 A4 (IL-2-IL15 chimera 12) (other, Produced in CHO cells; also called anti-HSA-hIL-2 fusion protein A4) EVQLVESGGGLVQPGGSLRLSCAASGSTWSINTLAWYRQAPGKQRDLVARISSGGSTYYADSVKGRFTISRDNSKNTLYLQMNSLRAEDTAVYYCYAQSTWYPPSWGQGTLVTVSSGGGGSGGGGSGGGGSAPTSSSTKKTQLQLKHLLLDLQMILNGIQSMHIDATTFKFYMPKKATELKHLQCLEEELKPLEEVLNLAQSKNFHLRPRDLISNINVIVLELKGSETTFMCEYADETATIVEFLNRWITFSQSIISTLT"
,"no binding (tested: 10 to 2,000 nM)",,"Anti-HSA-IL-2 A3 (IL-2-IL15 chimera 7) (other, Produced in CHO cells; also called anti-HSA-hIL-2 fusion protein A3) EVQLVESGGGLVQPGGSLRLSCAASGSTWSINTLAWYRQAPGKQRDLVARISSGGSTYYADSVKGRFTISRDNSKNTLYLQMNSLRAEDTAVYYCYAQSTWYPPSWGQGTLVTVSSGGGGSGGGGSGGGGSAPTSSSTKKTQLQLKHLLLDLQMILNGIQSMEIDATTFKFYMPKKATELKHLQCLEEELKPLEEVLNLAQSKNFHLRPRDLISNINVIVLELKGSETTFMCEYADETATIVEFLNRWITFSQSIISTLT"
,"no binding (tested: 10 to 2,000 nM)",,"Anti-HSA-IL-2 A17 (IL-2-IL15 chimera 12) (other, Produced in CHO cells; also called anti-HSA-hIL-2 fusion protein A17) EVQLVESGGGLVQPGGSLRLSCAASGSTWSINTLAWYRQAPGKQRDLVARISSGGSTYYADSVKGRFTISRDNSKNTLYLQMNSLRAEDTAVYYCYAQSTWYPPSWGQGTLVTVSSASTKGGGGGSGGGGSAPTSSSTKKTQLQLKHLLLDLQMILNGIQSMHIDATTFKFYMPKKATELKHLQCLEEELKPLEEVLNLAQSKNFHLRPRDLISNINVIVLELKGSETTFMCEYADETATIVEFLNRWITFSQSIISTLT"
no binding (tested: 300 nM),,139,"Anti-HSA-IL-2 A2 (IL-2-IL15 chimera 12) (other, E15K, C125S); Produced in CHO cells; also called anti-HSA-hIL-2 fusion protein A2) QVQLVESGGGVVQPGGSLRLSCAASGFAFRGFGMSWVRQAPGKGLEWVSSINNGGSDTYYADSVKGRFTISRDNSKNTLYLQMNSLRAEDTAVYYCAIGGPGASPSGQGTQVTVSSGGGGSGGGGSGGGGSAPTSSSTKKTQLQLKHLLLDLQMILNGIQSMHIDATTFKFYMPKKATELKHLQCLEEELKPLEEVLNLAQSKNFHLRPRDLISNINVIVLELKGSETTFMCEYADETATIVEFLNRWITFSQSIISTLT"
,"no binding (tested: 10 to 2,000 nM)",94,"Anti-HSA-IL-2 A15 (IL-2-IL15 chimera 12) (other, Produced in CHO cells; also called anti-HSA-hIL-2 fusion protein A15) QVQLVESGGGVVQPGGSLRLSCAASGFAFRGFGMSWVRQAPGKGLEWVSSINNGGSDTYYADSVKGRFTISRDNSKNTLYLQMNSLRAEDTAVYYCAIGGPGASPSGQGTQVTVSSASTKGGGGGSGGGGSAPTSSSTKKTQLQLKHLLLDLQMILNGIQSMHIDATTFKFYMPKKATELKHLQCLEEELKPLEEVLNLAQSKNFHLRPRDLISNINVIVLELKGSETTFMCEYADETATIVEFLNRWITFSQSIISTLT"
,"no binding (tested: 10 to 2,000 nM)",55,"Anti-HSA-IL-2 A1 (IL-2-IL15 chimera 7) (other, E15K, C125S); Produced in CHO cells; also called anti-HSA-hIL-2 fusion protein A1) QVQLVESGGGVVQPGGSLRLSCAASGFAFRGFGMSWVRQAPGKGLEWVSSINNGGSDTYYADSVKGRFTISRDNSKNTLYLQMNSLRAEDTAVYYCAIGGPGASPSGQGTQVTVSSGGGGSGGGGSGGGGSAPTSSSTKKTQLQLKHLLLDLQMILNGIQSMEIDATTFKFYMPKKATELKHLQCLEEELKPLEEVLNLAQSKNFHLRPRDLISNINVIVLELKGSETTFMCEYADETATIVEFLNRWITFSQSIISTLT"
